Data taken from PMC5544124 (Methods in enzymology, 2015).

B1: 6xHis-sfGFP-KASH2 polypeptide (KASH2 residues 6863-6885) (peptide, UniProt Q8WXH0 6863-6885, looked up)
chain: TQANNFARSFYPMLRYTNGPPPT
B2: human apo-SUN2 (residues 522-717) (domain or fragment, UniProt Q9UH99 522-717, looked up)
chain: GVTEEQVHHIVKQALQRYSEDRIGLADYALESGGASVISTRCSETYETKTALLSLFGIPLWYHSQSPRVILQPDVHPGNCWAFQGPQGFAVVRLSARIRPTAVTLEHVPKALSPNSTISSAPKDFAIFGFDEDLQQEGTLLGKFTYDQDGEPIQTFHFQAPTMATYQVVELRILTNWGHPEYTCIYRFRVHGEPAH

Assays:
[1] = target: B2; experiment: SEC
SEC = target: the molecule itself; experiment: SEC

binding result [1]	Binder	stoichiometry N (SEC)
binds	B1	
	B2	3
